# Source: the supplement of paper PMC10567573
# B1: TBX6 (parent)
# chain: AFLELPHGSGGSGYPAAPPAVPFA
# B2: TEKT4 (parent)
# chain: YARYHQAFADRDQSERQRHESQQL
# Variants of: B1
# Assay: protein stability index of a GFP-peptide fusion (GPS, HEK-293T) (PSI 1-6); higher = more stable
# Conditions: c terminus: a fixed tail appended
# 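Also: lentivirally expressed fusions sorted by FACS into six bins by GFP to DsRed ratio, PSI derived from sequencing read proportions per bin multiplied by bin number.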
row,Variant,protein stability index
1,AFLELPHGSGGSGYPAAPPAVPFI,2.23
2,AFLELPHGSGGSGYPAAPPAVPFM,2.19
3,AFLELPHGSGGSGYPAAPPTVPFA,2.42
4,AFLELPHGSGGSGYPAAPPDVPFA,3.49
5,AFLELPHGSGGSGYPAAPPFVPFA,2.4
6,AFLELPHGSGGSGYPAAPPRVPFA,2.56
7,AFLELPHGSGGSGYPAAPPCVPFA,2.68
8,AFLELPHGSGGSGYPAAPPQVPFA,2.99
9,AFLELPHGSGGSGHPAAPPAVPFA,2.5
10,AFLELPHGSGGSGTPAAPPAVPFA,3.48
11,AFLELPHGSGGSGMPAAPPAVPFA,2.84
12,AFLELPHGSGGSGYPAAPPAVPMA,2.62
13,AFLELPHGSGGSGYPAAPPAVPYA,2.42
14,AFLELPHGSGGSGYPAAPPAVPWA,2.18
15,AFLELPHGSGGSGYPAAPPAVPHA,3.05
16,AFLELPHGSGGSGYPAAPPAVPQA,3.7
17,AFLELPHGSGGSKYPAAPPAVPFA,2.58
18,AFLELPHGSGGSRYPAAPPAVPFA,2.22
19,AFLELPHGSGGSMYPAAPPAVPFA,2.07
20,AFLELPHGSGGSEYPAAPPAVPFA,2.61
21,AFLELPHGSGGSTYPAAPPAVPFA,2.52
22,AFLELPHGSGGSGYPAAVPAVPFA,2.01

row,Variant,protein stability index
1,AFLELPHGSGGSGYPAAGPAVPFA,2.39
2,AFLELPHGSGGSGYPAAIPAVPFA,2.29
3,AFLELPHGSGGSGYPAASPAVPFA,2.55
4,AFLELPHGSGGSGYPAAKPAVPFA,2.4
5,AFLELPHGSGGSGYPAARPAVPFA,2.17
6,AFLELPHGSGGSGYPAAQPAVPFA,2.22
7,AFAELPHGSGGSGYPAAPPAVPFA,3.14
8,AFCELPHGSGGSGYPAAPPAVPFA,2.7
9,AFWELPHGSGGSGYPAAPPAVPFA,3.01
10,AFLELPHGSGGSGYPAAPPAMPFA,2.36
11,AFLELPHGSGGSGYPAAPPAEPFA,3.02
12,AFLELPHGSGGSGYPAAPPACPFA,2.09
13,AFLELRHGSGGSGYPAAPPAVPFA,1.53
14,AFLELAHGSGGSGYPAAPPAVPFA,1.64
15,AFLELWHGSGGSGYPAAPPAVPFA,2.9
16,ANLELPHGSGGSGYPAAPPAVPFA,4.05
17,ARLELPHGSGGSGYPAAPPAVPFA,3.22
18,AFLELPHGSGGAGYPAAPPAVPFA,2.33
19,AFLELPHGSGGMGYPAAPPAVPFA,2
20,AFLELPHGSGGDGYPAAPPAVPFA,3
21,AFLELPHGSGGCGYPAAPPAVPFA,2.12
22,AFLELPHGSGGIGYPAAPPAVPFA,2.28

row,Variant,protein stability index
1,AFLEGPHGSGGSGYPAAPPAVPFA,3.25
2,AFLEKPHGSGGSGYPAAPPAVPFA,2.59
3,AFLEHPHGSGGSGYPAAPPAVPFA,2.9
4,AFLESPHGSGGSGYPAAPPAVPFA,2.8
5,AFLEAPHGSGGSGYPAAPPAVPFA,2.79
6,AFLGLPHGSGGSGYPAAPPAVPFA,2.13
7,AFLDLPHGSGGSGYPAAPPAVPFA,2.42
8,AFLCLPHGSGGSGYPAAPPAVPFA,2.17
9,AFLLLPHGSGGSGYPAAPPAVPFA,2.21
10,AFLSLPHGSGGSGYPAAPPAVPFA,2.19
11,AFLHLPHGSGGSGYPAAPPAVPFA,2.12
12,AFLELPHGSGGSGYPLAPPAVPFA,2.32
13,AFLELPHGSGGSGYPTAPPAVPFA,2.63
14,AFLELPHGSGGSGYPNAPPAVPFA,2.43
15,AFLELPHASGGSGYPAAPPAVPFA,2.86
16,AFLELPHRSGGSGYPAAPPAVPFA,2.1
17,AFLELPHWSGGSGYPAAPPAVPFA,1.93
18,AFLELPHGSVGSGYPAAPPAVPFA,2.2
19,AFLELPHGSQGSGYPAAPPAVPFA,2.08
20,AFLELPHGSEGSGYPAAPPAVPFA,2.96
21,AFLELPHGSTGSGYPAAPPAVPFA,2.1
22,AFLELPHGSAGSGYPAAPPAVPFA,2.24

row,Variant,protein stability index
1,AFLELPHGSIGSGYPAAPPAVPFA,2.55
2,AFLELPHGSCGSGYPAAPPAVPFA,2.55
3,AFLELPHGSRGSGYPAAPPAVPFA,2.07
4,AFLELPHGSYGSGYPAAPPAVPFA,1.9
5,AFLELPHGSGRSGYPAAPPAVPFA,2.3
6,AFLELPHGSGYSGYPAAPPAVPFA,1.95
7,AFLELPHGSGCSGYPAAPPAVPFA,1.9
8,AFLELPHGSGHSGYPAAPPAVPFA,2.15
9,AFLELPHGSGTSGYPAAPPAVPFA,2.11
10,AFLELPHGSGGSGYPAAPLAVPFA,2.25
11,AFLELPHGSGGSGYPAAPGAVPFA,2.38
12,AFLELPHGSGGSGYPAAPAAVPFA,2.72
13,AFLELPHGSGGSGYPAAPKAVPFA,2.07
14,AFLELPHGSGGSGYPAAPIAVPFA,2.27
15,AFLELPHGSGGSGYPAAPCAVPFA,2.05
16,AFLELPHGSGGSGYPAAPPAVMFA,2.02
17,AFLELPHGSGGSGYPAAPPAVTFA,1.86
18,AFLELPHGSGGSGYPAAPPAVEFA,2.54
19,AFLELPHGSGGSGYPAAPPAVFFA,2.13
20,TFLELPHGSGGSGYPAAPPAVPFA,2.71
21,AFLELPHGSGGSGYNAAPPAVPFA,2.48
22,AFLELPHGSGGSGYMAAPPAVPFA,1.77

row,Variant,protein stability index
1,AFLELPHGSGGSGYQAAPPAVPFA,2.01
2,AFLELPHGSGGSGYSAAPPAVPFA,2.38
3,AFLELPHGSGGSGYYAAPPAVPFA,2.23
4,AFLELPHGSGGSGYFAAPPAVPFA,1.54
5,AFLELPHGSGGSGYWAAPPAVPFA,1.99
6,AFLELPHGSGGSGYPANPPAVPFA,2.22
7,AFLELPHGSGGSGYPASPPAVPFA,2.46
8,AFLELPHGSGGSGYPAWPPAVPFA,2.02
9,AFLELPTGSGGSGYPAAPPAVPFA,2.41
10,AFLELPWGSGGSGYPAAPPAVPFA,1.56
11,AFLELPIGSGGSGYPAAPPAVPFA,2.39
12,AFLELPGGSGGSGYPAAPPAVPFA,2.74
13,AFLELPKGSGGSGYPAAPPAVPFA,2.69
14,AFLELPNGSGGSGYPAAPPAVPFA,2.2
15,AFLELPYGSGGSGYPAAPPAVPFA,2.34
16,AFLELPHGVGGSGYPAAPPAVPFA,2.17
17,AFLELPHGQGGSGYPAAPPAVPFA,2.63
18,AFLELPHGHGGSGYPAAPPAVPFA,2.02
19,AFLELPHGLGGSGYPAAPPAVPFA,1.93
20,AFLELPHGWGGSGYPAAPPAVPFA,2.31

# Variants of: B2
# Assay: as above
# Conditions: c terminus: a fixed tail appended
row,Variant,protein stability index
1,YARYHQAFADRDQSERQRHVSQQL,2.21
2,YARYHQAFADRDQSERQRHWSQQL,1.51
3,YARYHQAFADRDQSERQRHYSQQL,2.06
4,YARYHQAFADRDQSERQRHTSQQL,2.27
5,YARYHQAFADRDQSERQRHESQQI,2.03
6,YARYHQAFADRDQSERQRHESQQA,1.88
7,YARYHQAFADRDQSERQRHESQQY,2.12
8,YARYHQAFADRDQSERQRHESQQH,2.42
9,YARYHQAFADRDQSERQRHESQQG,2.37
10,YARYHQAFADRDQSERQRHESQQC,1.67
11,YARYHQAFADRDQSERQRHESQQW,1.85
12,YARYHQAFADRDQSERQRHESQQR,1.68
13,YARYHQAFADRDQSERQRHESQQP,1.64
14,YARYHQAFADRDQSERQRHESQQQ,2.57
15,YARYHQAFADRDQSERQRHESQQV,1.57
16,YARYHQAFADRDQSERQRHESQQT,2.15
17,YARYHQAFADRDQSERQRHESQQD,2.14
18,YARYHQAFADRDQSERQRHESQQE,2.24
19,YARYHQAFADRDQSERQRHESQQN,2.23
20,YARYHQAFADRDQSERQRHESQQF,2.37
21,YARYHQAFADRDQSERQRHESQQS,2.27
22,YARYHQAFADRDQSERQRHESQQM,2.21
23,YARYHQAFADRDQSERQRHESQQK,1.73
24,YARYHQAFADRDQSERQRHESPQL,2.17
25,YARYHQAFADRDQSERQRHESWQL,1.43
26,YARYHQAFADRDQSERQRHESKQL,2.17
27,YARYHQAFADRDQSERQRHESIQL,1.66

row,Variant,protein stability index
1,YARYHQAFADRDQSERQRHESLQL,1.82
2,YARYHQAFADRDQSERQRHESRQL,1.85
3,YARYHQAFADRDQSERQRHESSQL,1.92
4,YARYHQAFADRDQSERQRHESVQL,1.79
5,YARYHQAFADRDQSERQRHESMQL,2.2
6,YARYHQAFADRDQSERQRHESDQL,2.17
7,YARYHQAFADRDQSERQRHESCQL,1.57
8,YARYHQAFADRDQSERQRHESEQL,2.25
9,YARYHQAFADRDQSERQRHESGQL,1.85
10,YARYHQAFADRDQSERQRHESAQL,1.8
11,YARYHQAFADRDQSERQRHESFQL,1.9
12,YARYHQAFADRDQSERQRHESTQL,1.63
13,YARYHQAFADRDQSERQRHESHQL,2.36
14,YARYHQAFADRDQSERQRHESNQL,2.1
15,YARYHQAFADRDQSERQRHESYQL,1.65
16,YARYHQAFADRDQSERQRHEPQQL,2.39
17,YARYHQAFADRDQSERQRHEQQQL,1.59
18,YARYHQAFADRDQSERQRHECQQL,2.77
19,YARYHQAFADRDQSERQRHEYQQL,1.29
20,YARYHQAFADRDQSERQRHEIQQL,2.41
21,YARYHQAFADRDQSERQRHEWQQL,1.69
22,YARYHQAFADRDQSERQRHEKQQL,1.46
23,YARYHQAFADRDQSERQRHETQQL,3.06
24,YARYHQAFADRDQSERQRHEHQQL,1.99
25,YARYHQAFADRDQSERQRHEMQQL,1.65
26,YARYHQAFADRDQSERQRHEVQQL,2.16
27,YARYHQAFADRDQSERQRHERQQL,2.46

row,Variant,protein stability index
1,YARYHQAFADRDQSERQRHENQQL,1.98
2,YARYHQAFADRDQSERQRHELQQL,1.83
3,YARYHQAFADRDQSERQRHEAQQL,2.01
4,YARYHQAFADRDQSERQRHEEQQL,2.5
5,YARYHQAFADRDQSERQRHEDQQL,1.78
6,YARYHQAFADRDQSERQRHEFQQL,1.59
7,YARYHQAFADRDQSERQRHEGQQL,2.32
8,YARYHQAFADRDQSERQRHESQHL,2.34
9,YARYHQAFADRDQSERQRHESQML,1.94
10,YARYHQAFADRDQSERQRHESQNL,1.91
11,YARYHQAFADRDQSERQRHESQFL,1.44
12,YARYHQAFADRDQSERQRHESQTL,1.85
13,YARYHQAFADRDQSERQRHESQLL,2.63
14,YARYHQAFADRDQSERQRHESQKL,3
15,YARYHQAFADRDQSERQRHESQGL,2.01
16,YARYHQAFADRDQSERQRHESQIL,1.66
17,YARYHQAFADRDQSERQRHESQWL,1.7
18,YARYHQAFADRDQSERQRHESQSL,2.41
19,YARYHQAFADRDQSERQRHESQYL,2.19
20,YARYHQAFADRDQSERQRHESQRL,2.65
21,YARYHQAFADRDQSERQRHESQAL,1.84
22,YARYHQAFADRDQSERQRHESQEL,1.97
23,YARYHQAFADRDQSERQRHESQPL,1.92
24,YARYHQAFADRDQSERQRHESQDL,2.37
25,YARYHQAFADRDQSERQRHESQCL,2.11
26,YARYHQAFADRDQSERQRHESQVL,1.68
